The test system of the data set is His6-CusR (Pseudomonas paraeruginosa IHMA87). As to the kind of experiment: EMSA. The conditions noted are these: apparent equilibrium constant (Keq); unphosphorylated CusR; 20 mM HEPES pH 7.9, 80 mM KCl, 20 mM MgCl2, 0.8 mM EDTA, 7.5% glycerol, 0.1 mM DTT, 25 C; 0.5 nM probe; native 5% TBE gel at 4 C.

For the substance “PcusR probe (pcoA2-cusR intergenic 60-mer)”, the Kd worked out at 25 nM.

The values above are taken from paper PMC11195947.
